These results are taken from IntAct's records for PubMed 24612608.

First the molecules themselves.
B1: Beta-secretase 1 (Homo sapiens), P56817 (parent)
chain: MAQALPWLLLWMGAGVLPAHGTQHGIRLPLRSGLGGAPLGLRLPRETDEEPEEPGRRGSFVEMVDNLRGKSGQGYYVEMTVGSPPQTLNILVDTGSSNFAVGAAPHPFLHRYYQRQLSSTYRDLRKGVYVPYTQGKWEGELGTDLVSIPHGPNVTVRANIAAITESDKFFINGSNWEGILGLAYAEIARPDDSLEPFFDSLVKQTHVPNLFSLQLCGAGFPLNQSEVLASVGGSMIIGGIDHSLYTGSLWYTPIRREWYYEVIIVRVEINGQDLKMDCKEYNYDKSIVDSGTTNLRLPKKVFEAAVKSIKAASSTEKFPDGFWLGEQLVCWQAGTTPWNIFPVISLYLMGEVTNQSFRITILPQQYLRPVEDVATSQDDCYKFAISQSSTGTVMGAVIMEGFYVVFDRARKRIGFAVSACHVHDEFRTAAVEGPFVTLDMEDCGYNIPQTDESTLMTIAYVMAAICALFMLPLCLMVCQWRCLRCLRQQHDDFADDISLLK
partner: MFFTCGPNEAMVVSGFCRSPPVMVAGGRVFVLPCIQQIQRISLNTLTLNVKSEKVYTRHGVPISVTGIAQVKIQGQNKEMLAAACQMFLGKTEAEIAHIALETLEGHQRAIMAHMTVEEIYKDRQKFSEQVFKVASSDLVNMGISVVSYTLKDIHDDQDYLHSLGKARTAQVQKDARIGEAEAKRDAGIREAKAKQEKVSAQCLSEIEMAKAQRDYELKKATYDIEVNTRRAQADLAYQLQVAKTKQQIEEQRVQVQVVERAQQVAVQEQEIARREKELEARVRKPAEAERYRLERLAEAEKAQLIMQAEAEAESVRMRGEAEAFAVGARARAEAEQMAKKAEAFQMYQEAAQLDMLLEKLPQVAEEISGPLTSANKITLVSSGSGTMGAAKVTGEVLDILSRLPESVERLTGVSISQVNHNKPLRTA

Variants of B1 are the subject of the assay. Particulars: with flot1_rat Flot1, Q9Z1E1.
Consider L499A;L500A, for which the “effect of a mutation on the interaction” value is “disrupting interaction”.
